Data set [1] relates to MS2 coat protein. Put plainly: apparent KD of MS2 coat protein; higher = weaker reporter binding. The conditions noted are these: Eterna round: R101. Here is the method: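 RNA-MaP: designed FMN/MS2 RNA switches (84 nt design region) are transcribed on-chip within common flanks and titrated with SNAP-549-labelled MS2 coat protein (about 1-3000 nM) in 100 mM Tris pH 7.5, 80 mM KCl, 4 mM MgCl2, without or with 200 uM FMN. Median apparent KD per design; activation ratio = KD,OFF / KD,ON.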

Data set [2] concerns MS2 coat protein. In words: apparent KD of MS2 coat protein, switch ON state; designed switch direction (-1 OFF switch, 1 ON switch): 1; higher = weaker reporter binding. The settings on record: FMN input: 0 or 200 uM; Eterna round: R93 (includes R88 designs). The essentials: (§1)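 Values are apparent KD, taken as the median for each design of fits to normalised binding curves from individual clusters. The designed RNA switches were transcribed on-chip from Illumina sequencing clusters and exposed to SNAP-549-labelled MS2 coat protein at twofold increasing amounts from 0.7 or 1.5 nM to 3 µM. Titration used 100 mM Tris-HCl pH 7.5, 80 mM KCl and 4 mM MgCl2, without or with constant ligand.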

Data set [3] relates to MS2 coat protein. Put plainly: apparent KD of MS2 coat protein, switch OFF state (with FMN for OFF switches, without FMN for ON switches); designed switch direction (-1 OFF switch, 1 ON switch): 1; higher = weaker reporter binding. The settings on record: FMN input: 0 or 200 uM; Eterna round: R93 (includes R88 designs). The essentials: as §1

Regarding “AAUAAUUCUUAAGGAUAUCAGUGGCAAAGCCACUGAGAAGGUGAGGAUCACCCACCUACGUGACGCUGGAAACAGCGUCACGAA [#SharedSequence ExNG1 - 30] (puzzle (switch architecture): Exclusion NG 1)”, the “apparent KD of MS2 coat protein” value with MS2 coat protein [1] (input ligand: FMN 200 uM) was 23.1 nM; with MS2 coat protein [1] (input ligand: none), 16.2 nM.
Take “AAGUGAAAUCAGAAGGCGUGGACGAAACGUCCACGAGGAUAUGAGGAUCACCCAUAUCAGGUCAGCCUGCAAAGCAGGCUGACC [#SharedSequence - IExNG1: 5-2] (puzzle (switch architecture): Inverted Exclusion NG 1)”: the “apparent KD of MS2 coat protein” value stood at 537 nM with MS2 coat protein [1] (input ligand: FMN 200 uM) and 30.2 nM with MS2 coat protein [1] (input ligand: none).
Take “GGAGAUACAUGAGGAUCACCCAUGUAGGAUAUAUAGUAUAUAUAUGGCGAAAGCCAUAUAUAUAUAUAGAAGGGCGUACACACC [#LOL-14] (puzzle (switch architecture): Small Loop Exclusion NG 3)”: the “apparent KD of MS2 coat protein” value worked out at 7.28 nM with MS2 coat protein [1] (input ligand: FMN 200 uM) and 8.22 nM with MS2 coat protein [1] (input ligand: none).
Consider “CUGGUUGUCGUAGGAUAUGUAGGAUAUUCCUACAUGAGGAUCACCCAUGUUCGCAUGGAAGAAGGACAGAAGGACGAUGACCAC [salish99_SSNG2_013 #endbits investigation] (puzzle (switch architecture): Same State NG 2)”, for which the “apparent KD of MS2 coat protein” value with MS2 coat protein [1] (input ligand: FMN 200 uM) was found to be 9.19 nM; in the data set on MS2 coat protein [1] (input ligand: none), 1050 nM.
The matching figures for “GGAGAUACAUGAGGAUCACCCAUGUAGGAUAUCGGGCCCGUACCCGGCGAAAGCCGGGUACGGGCCGAGAAGGGCGUACACACC [#LOL-4] (puzzle (switch architecture): Small Loop Exclusion NG 3)”: 9.27 nM and 9.3 nM.
For the sequence “AAGUGAAAUCAGAAGGCGUGGACGAAACGUCCACGAGGAUAUGAGGAUCACCCAUGUCAGGUCAGCCUGCAAAGCAGGCUGACC [#SharedSequence - IExNG1: 6-1] (puzzle (switch architecture): Inverted Exclusion NG 1)”, the “apparent KD of MS2 coat protein” value in the data set on MS2 coat protein [1] (input ligand: FMN 200 uM) is 259 nM; with MS2 coat protein [1] (input ligand: none) it was 66.2 nM.
Turning to “AGUCGGAGCAGAGGAUAUUACAUGAGGAUCACCCAUGUAUGAACCAAUAGCUGGAAACAGCAAUGUAAGAAGGCUGCUCCGACA (puzzle (switch architecture): Exclusion NG 2)”, the “apparent KD of MS2 coat protein” value turned out to be 169 nM in the data set on MS2 coat protein [1] (input ligand: FMN 200 uM) and 12.9 nM in the data set with MS2 coat protein [1] (input ligand: none).
As to “AUAUGAUUAAGAGGAUAUAUACAACAUGAGGAUCACCCAUGUACCCAUGUAGUAGAAGGUUUAUUUUUAUAUAAUAAUAUAAUU [AstrosLoopssng1#12] (puzzle (switch architecture): Small Loop Same State NG 1)”, the entries for the “apparent KD of MS2 coat protein” value with MS2 coat protein [1] (input ligand: FMN 200 uM) and with MS2 coat protein [1] (input ligand: none) were 61.4 nM and 82.9 nM, respectively.
Take “CCAGUUCUGGCAUCCUUAUUACAUGAGGAUCACCCAUGUUGUGAGGAUAUCCCAACCCACGGUCAGGAGAAGGCACAUAGAGGG [Eduscebira] (puzzle (switch architecture): Exclusion NG 3)”: the entries for the “apparent KD of MS2 coat protein” value in the data set with MS2 coat protein [1] (input ligand: FMN 200 uM) and with MS2 coat protein [1] (input ligand: none) were 5.37 nM and 5.89 nM, respectively.
In the case of “UGAUAGGACAGAGGAUAUACGUGCUAGAGAUACUAGCAAAAUUUCCUCACAUGAGGAUCACCCAUGUAGAAGGCUGUCCUAUCU [#PyrimidineMS2Turnoff - Eli xng 2.01 rotated] (puzzle (switch architecture): Exclusion NG 2)”, the entries for the “apparent KD of MS2 coat protein” value with MS2 coat protein [1] (input ligand: FMN 200 uM) and with MS2 coat protein [1] (input ligand: none) were 533 nM and 16.5 nM, respectively.
Turning to “UUUAAUAUUAUAGGAUAUGGAUACGAUACGUAUCCAGAAGGGUGAUUAUAAUAUAAUCUAUACAUGAGGAUCACCCAUGUUUAU [AtrosYaY8] (puzzle (switch architecture): Same State NG 1)”, the “apparent KD of MS2 coat protein” value was 84.8 nM in the data set on MS2 coat protein [1] (input ligand: FMN 200 uM) and 205 nM in the data set on MS2 coat protein [1] (input ligand: none).
As for “GUAGCAGCGGCGCCCUCGUAGACAUGAGGAUCACCCAUGUCGCAGGAUAUCAGAAGCGGAGCUGCUGAGAAGGGCGACAUAAGG [Quorus] (puzzle (switch architecture): Exclusion NG 3)”, the “apparent KD of MS2 coat protein” value with MS2 coat protein [1] (input ligand: FMN 200 uM) turned out to be 13.8 nM; in the data set on MS2 coat protein [1] (input ligand: none) it was 7.25 nM.
As for “AAAUAACUCGAAGGAUAUGACCCUCGAGGUGACUAAAAGUCACCUCGAGGGUCAGAAGGUCGAGGAUCACCCGACCUAGUGAAA [#SharedSequence SLExNG1: 8] (puzzle (switch architecture): Small Loop Exclusion NG 1)”, the “apparent KD of MS2 coat protein” value amounted to 65.9 nM in the data set with MS2 coat protein [1] (input ligand: FMN 200 uM) and 10.3 nM in the data set on MS2 coat protein [1] (input ligand: none).
With “AAUUAAAUCCUAGGAUAUCAGUGGCAAAGCCACUGAGAAGGAGGAUCACCCUUUCAAACGUGACGCUGGAAACAGCGUCACGAA [#SharedSequence - ExNG1-18] (puzzle (switch architecture): Exclusion NG 1)”, the “apparent KD of MS2 coat protein” value turned out to be 444 nM in the data set on MS2 coat protein [1] (input ligand: FMN 200 uM) and 699 nM with MS2 coat protein [1] (input ligand: none).
In the case of “AGGAGAAAUGUAGGAUAUGGGCGGGCGUAUGGGCAAAGCGCAUACGCCCGCCCAGAAGGACAUGAGGAUCACCCAUGUUUCCCU [#Lowering the energy 2] (puzzle (switch architecture): Small Loop Exclusion NG 1)”, the “apparent KD of MS2 coat protein” value with MS2 coat protein [1] (input ligand: FMN 200 uM) stood at 13.8 nM; in the data set on MS2 coat protein [1] (input ligand: none) it was 11.7 nM.
Consider “AAAGAUUUUUAAGGAUAUGACUCCGAAACGGAGUCAGAAGGUGAGGAUCACCCACCUAGCUCAGCGUCGAAAGACGCUGAGCAA [#SharedSequence ExNG1 - 24] (puzzle (switch architecture): Exclusion NG 1)”, for which the “apparent KD of MS2 coat protein” value in the data set on MS2 coat protein [1] (input ligand: FMN 200 uM) was found to be 11 nM; in the data set on MS2 coat protein [1] (input ligand: none), 8.75 nM.
Turning to “GUAGCAUACGGAGGAUAUUCAUACCGGAAACGGACAUGAGGAUCACCCAUGUGGCGAAAGCCUUGGGAGAAGGCCGUAUGCUAC [#DoubleMagnetSystem - Mat - Same State NG 2 - JL Mod - D 61] (puzzle (switch architecture): Same State NG 2)”, the entries for the “apparent KD of MS2 coat protein” value in the data set with MS2 coat protein [1] (input ligand: FMN 200 uM) and in the data set on MS2 coat protein [1] (input ligand: none) were 8.06 nM and 187 nM, respectively.
The matching figures for “GGAGAUACAUGAGGAUCACCCAUGUAGGAUAUCGGGCCCGUGCCCGGCGAAAGCCGGGCACGGGCCGAGAAGGGCGUACACACC [#LOL-3] (puzzle (switch architecture): Small Loop Exclusion NG 3)”: 7.66 nM and 8.78 nM.
For the sequence “GUACAUGAGGAUCACCCAUGUCACAUAACGUCCGAGGAUACCAGAAGGGCAGACGUUACGACGGUGCAGGAUAUGGGCUCCUAA [Beceanbe] (puzzle (switch architecture): Inverted Same State NG 3)”, the “apparent KD of MS2 coat protein” value with MS2 coat protein [1] (input ligand: FMN 200 uM) was determined as 37.2 nM; in the data set on MS2 coat protein [1] (input ligand: none), 56.6 nM.
As for “AAUAAAGAUCCUAGAGGAUCACCCUAGGAUAUGAGGCUGCACCUCGGAUAAUCCGAGGUGCAGCCUCAGAAGGAGGAAAUAAAU [#SharedSequence - SLExNG3: 5-2] (puzzle (switch architecture): Small Loop Exclusion NG 3)”, the “apparent KD of MS2 coat protein” value turned out to be 25.8 nM with MS2 coat protein [1] (input ligand: FMN 200 uM) and 11.6 nM in the data set with MS2 coat protein [1] (input ligand: none).
“AGUGUCAUCGAGAAGGCCUCAACAUGAGGAUCACCCAUUUUGAAAAGUGGGAGGAUAUCGAUGAUACAGCUACGUUUCGUAGCA [salish99_InSLSSNG1_023 #HINGE] (puzzle (switch architecture): Inverted Small Loop Same State NG 1)”: the “apparent KD of MS2 coat protein” value in the data set with MS2 coat protein [1] (input ligand: FMN 200 uM) worked out at 132 nM; in the data set with MS2 coat protein [1] (input ligand: none) it was 107 nM.
Taken in the same sequence, the figures for “UGGUACUAGGGAGGAUAUGGGAAGAUACAUGAGGAUCACCCAUGUUUAAGAAUGCCGAGAGGCAACUAGAAGGCCCUAGUACCU (puzzle (switch architecture): Same State NG 2)” were 18.9 nM and 437 nM.
As to “AAAAAACAUGAGGAUCACCCAUGUGCAAAAUUCGCAGGAUAUCCCUUUUUUAAAUGGGAGGGAGAAGGGUGAAAAA [Nob's Hobby 17 - Jieux - Same State 1]”, the “apparent KD of MS2 coat protein” value was determined as 23.7 nM in the data set with MS2 coat protein [2] and 76 nM with MS2 coat protein [3].
Consider “AAAAAACAUGAGGAUCACCCAUGUGCAAAAUUCGCAGGAUAUUCCUCAAUUAAAUGAAAGGAAGAAGGGUGAUAAA [Nob's Hobby 31 - Jieux - Same State 1]”, for which the “apparent KD of MS2 coat protein” value turned out to be 79.7 nM in the data set on MS2 coat protein [2] and 429 nM with MS2 coat protein [3].
On to “ACCAGGAAGAGAGAGGAUAUCCAAAGGAAAACAUGAGGAUCACCCAUGUAAAAGGUAGGAAAUUGGGAGAAGGCUCAAGAGAGAG [salish99-ss2-101]”, for which the “apparent KD of MS2 coat protein” value in the data set on MS2 coat protein [2] was determined as 26.7 nM; in the data set with MS2 coat protein [3], 30.1 nM.
The matching figures for “AAAAUACAUGAGGAUCACCCAUGUGAAAAUAUGGAAGGAUAUCAAUGCAAAAAAAAGCAUUGAGAAGGUCCAAAAA [SS! 1 MT 8]”: 16.7 nM and 26.9 nM.
With “AGGAAACAUGAGGAUCACCCAUGUAAAAAUAUGGGAGGAUAUGGAAACACGAAAGUGAAACCAGAAGGCCCGAAAA [77%, Mat - Mod of Eli, 18]”, the “apparent KD of MS2 coat protein” value stood at 17.1 nM in the data set with MS2 coat protein [2] and 23.9 nM with MS2 coat protein [3].
Take “AAAUAAAUGACUAAGGAUAUAUCAGAGAAAACAUGAGGAUCACCCAUGUAAUAAUAAAAAGGGUGAUAGAAGGUAGUCAACAAACA [Pariah 4 (MS2 Riboswitches - Same State 2)]”: the “apparent KD of MS2 coat protein” value in the data set with MS2 coat protein [2] turned out to be 26 nM; in the data set on MS2 coat protein [3], 154 nM.

These data come from the supplement of paper PMC9170038.
